Key:
Test in all cases: holdup assay
Set-up in all cases: key: below the threshold = too weak to quantify, mostly under pKd 3.1 to 4
Conditions in all cases: plain residues with an end cap or a label only (N-terminal biotin on a linker: ado-ado)
[1] = target: LDB3, O75112
[2] = target: T1, GRIP1_4, Q9Y3R0
T1 sequence (Q9Y3R0 467-571, limits assumed, looked up): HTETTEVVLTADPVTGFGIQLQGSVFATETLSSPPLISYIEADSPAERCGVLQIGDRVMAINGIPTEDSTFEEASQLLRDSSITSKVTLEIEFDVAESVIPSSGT

[3] = target: IL16_1, Q14005
[4] = target: ARHGEF12, Q9NZN5-2
[5] = target: T2, LNX2_2, Q8N448
T2 sequence (Q8N448 334-432, limits assumed, looked up): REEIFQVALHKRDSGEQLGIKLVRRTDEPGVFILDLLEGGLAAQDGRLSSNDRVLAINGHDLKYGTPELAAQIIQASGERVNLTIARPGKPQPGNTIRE

[6] = target: NHERF4_1, Q86UT5-2
[7] = target: GRID2IP_2, A4D2P6
[8] = target: MAGI1_1, Q96QZ7
[9] = target: T3, SHANK1, Q9Y566
T3 sequence (Q9Y566 658-767, limits assumed, looked up): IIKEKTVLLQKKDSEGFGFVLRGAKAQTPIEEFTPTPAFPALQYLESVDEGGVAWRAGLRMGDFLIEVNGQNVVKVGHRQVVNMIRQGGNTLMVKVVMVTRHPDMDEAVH

[10] = target: MAGI2_6, Q86UL8
[11] = target: T4, PDZD7_3, Q9H5P4
T4 sequence (Q9H5P4 857-944, limits assumed, looked up): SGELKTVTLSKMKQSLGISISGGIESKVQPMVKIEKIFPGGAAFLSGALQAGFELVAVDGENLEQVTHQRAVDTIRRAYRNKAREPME

[12] = target: NHERF2_2, Q15599
[13] = target: T5, MPP2, Q14168
T5 sequence (Q14168 180-250, limits assumed, looked up): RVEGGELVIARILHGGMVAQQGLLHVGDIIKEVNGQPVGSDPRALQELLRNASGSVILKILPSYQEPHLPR

[14] = target: T6, PTPN13_1, Q12923
T6 sequence (Q12923 1088-1188, limits assumed, looked up): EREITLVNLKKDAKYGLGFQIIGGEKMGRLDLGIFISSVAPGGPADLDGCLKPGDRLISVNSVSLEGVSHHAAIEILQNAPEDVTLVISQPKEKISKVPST

[15] = target: FRMPD4, Q14CM0
[16] = target: LNX1_1, Q8TBB1
[17] = target: T7, SIPA1L2, Q9P2F8
T7 sequence (Q9P2F8 945-1036, limits assumed, looked up): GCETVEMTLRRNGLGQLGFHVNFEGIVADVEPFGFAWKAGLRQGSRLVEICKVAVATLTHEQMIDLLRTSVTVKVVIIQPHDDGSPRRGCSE

[18] = target: CASK, O14936
[19] = target: NHERF4_2, Q86UT5
[20] = target: T8, DLG3_3, Q92796
T8 sequence (Q92796 374-475, limits assumed, looked up): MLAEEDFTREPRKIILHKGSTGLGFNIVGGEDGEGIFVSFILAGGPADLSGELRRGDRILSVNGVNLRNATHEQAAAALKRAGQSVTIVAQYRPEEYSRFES

[21] = target: Inadl_9, Q8NI35
[22] = target: T9, SNTG2, Q9NY99
T9 sequence (Q9NY99 68-166, limits assumed, looked up): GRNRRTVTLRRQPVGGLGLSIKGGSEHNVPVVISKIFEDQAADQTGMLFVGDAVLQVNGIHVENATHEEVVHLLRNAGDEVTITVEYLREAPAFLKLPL

[23] = target: T10, DFNB31_1, Q9P202
T10 sequence (Q9P202 135-233, limits assumed, looked up): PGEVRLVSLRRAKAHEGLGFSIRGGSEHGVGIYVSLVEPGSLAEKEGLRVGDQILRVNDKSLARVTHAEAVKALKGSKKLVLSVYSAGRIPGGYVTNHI

[24] = target: SCRIB_3, Q14160
[25] = target: GRASP, Q7Z6J2
[26] = target: T11, PARD3B_1, Q8TEW8
T11 sequence (Q8TEW8 196-299, limits assumed, looked up): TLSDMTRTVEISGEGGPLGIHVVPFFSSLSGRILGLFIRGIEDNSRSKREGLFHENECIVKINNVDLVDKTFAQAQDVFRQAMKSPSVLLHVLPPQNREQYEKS

FRMPD4, Q14CM0, sequence (Q14CM0 67-160): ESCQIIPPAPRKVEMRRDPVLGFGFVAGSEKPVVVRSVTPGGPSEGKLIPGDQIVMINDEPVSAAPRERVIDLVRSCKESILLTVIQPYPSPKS
MAGI1_1, Q96QZ7, sequence (Q96QZ7 1-106): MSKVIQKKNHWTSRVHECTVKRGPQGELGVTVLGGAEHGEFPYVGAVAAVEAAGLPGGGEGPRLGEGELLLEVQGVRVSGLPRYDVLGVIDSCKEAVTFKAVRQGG
LDB3, O75112, sequence (O75112 1-94): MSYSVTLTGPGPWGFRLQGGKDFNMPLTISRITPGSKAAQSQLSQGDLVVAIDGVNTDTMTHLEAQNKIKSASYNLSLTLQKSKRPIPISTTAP
SCRIB_3, Q14160, sequence (Q14160 999-1103): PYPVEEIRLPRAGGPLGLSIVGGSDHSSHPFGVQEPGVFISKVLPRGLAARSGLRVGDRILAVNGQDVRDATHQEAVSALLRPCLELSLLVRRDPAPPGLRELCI
GRID2IP_2, A4D2P6, sequence (A4D2P6 272-370): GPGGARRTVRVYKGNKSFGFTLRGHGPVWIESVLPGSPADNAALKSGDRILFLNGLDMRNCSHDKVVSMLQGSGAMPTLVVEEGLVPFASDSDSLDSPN
NHERF2_2, Q15599, sequence (Q15599 142-238): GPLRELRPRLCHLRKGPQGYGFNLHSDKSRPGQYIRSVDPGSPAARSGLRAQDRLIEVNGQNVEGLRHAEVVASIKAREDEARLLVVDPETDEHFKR
NHERF4_1, Q86UT5-2, sequence (Q86UT5 other isoform, or with tags, fused parts or gaps): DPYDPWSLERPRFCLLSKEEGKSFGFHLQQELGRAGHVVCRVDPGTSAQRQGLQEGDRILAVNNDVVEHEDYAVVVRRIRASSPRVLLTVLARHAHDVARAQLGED
MAGI2_6, Q86UL8, sequence (Q86UL8 1141-1229): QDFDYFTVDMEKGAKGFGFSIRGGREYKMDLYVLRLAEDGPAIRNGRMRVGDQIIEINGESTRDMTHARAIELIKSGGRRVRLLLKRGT
LNX1_1, Q8TBB1, sequence (Q8TBB1 261-371): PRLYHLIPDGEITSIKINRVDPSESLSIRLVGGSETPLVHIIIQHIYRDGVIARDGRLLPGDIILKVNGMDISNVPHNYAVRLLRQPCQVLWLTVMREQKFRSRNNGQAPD
Inadl_9, Q8NI35, sequence (Q8NI35 1530-1615): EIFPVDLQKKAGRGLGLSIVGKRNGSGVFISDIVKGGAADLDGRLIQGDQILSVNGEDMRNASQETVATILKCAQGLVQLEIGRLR
IL16_1, Q14005, sequence (Q14005 210-306): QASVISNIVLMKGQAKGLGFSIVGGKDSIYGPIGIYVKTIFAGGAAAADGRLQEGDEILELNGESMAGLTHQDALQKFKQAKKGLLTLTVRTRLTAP
ARHGEF12, Q9NZN5-2, sequence (Q9NZN5 other isoform, or with tags, fused parts or gaps): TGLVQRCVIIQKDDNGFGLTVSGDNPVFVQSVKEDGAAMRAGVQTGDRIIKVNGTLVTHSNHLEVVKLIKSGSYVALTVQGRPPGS
GRASP, Q7Z6J2, sequence (Q7Z6J2 96-193): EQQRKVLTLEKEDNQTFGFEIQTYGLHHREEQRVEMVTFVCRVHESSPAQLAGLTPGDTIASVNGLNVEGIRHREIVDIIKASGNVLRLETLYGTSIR
CASK, O14936, sequence (O14936 487-570): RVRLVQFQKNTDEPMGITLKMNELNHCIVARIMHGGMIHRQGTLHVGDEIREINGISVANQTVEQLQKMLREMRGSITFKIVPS
NHERF4_2, Q86UT5, sequence (Q86UT5 220-308): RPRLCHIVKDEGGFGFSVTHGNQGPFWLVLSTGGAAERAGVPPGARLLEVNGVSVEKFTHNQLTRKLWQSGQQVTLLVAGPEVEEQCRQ

With QHKTQLQTLI [BPIFA2, Q96DR5] the pKd [1] was “below the threshold”, the pKd [2] was “below the threshold” and the pKd [3] was “below the threshold”. For the same binder, the pKd [4] was 4.33, the pKd [5] was 4 and the pKd [6] was 3.85. The pKd [7] was 3.93, the pKd [8] was 3.66 and the pKd [9] was 4.02. The pKd [10] was “below the threshold”, the pKd [11] was 5.15 and the pKd [12] was 3.58. The pKd [13] was “below the threshold”, the pKd [14] was “below the threshold” and the pKd [15] was “below the threshold”. The pKd [16] was 4.27, the pKd [17] was “below the threshold” and the pKd [18] was “below the threshold”. For the same binder, the pKd [19] was “below the threshold”, the pKd [20] was “below the threshold” and the pKd [21] was “below the threshold”. It also gave a pKd [22] of 3.63, a pKd [23] of 4.38 and a pKd [24] of 4.2. It also gave a pKd [25] of 4.04 and a pKd [26] of 4.22.

YLEPVLSSEL [ATP2A2, P16615;P16615-3] was tested, and the pKd [1] was “below the threshold”, the pKd [2] was “below the threshold” and the pKd [3] was “below the threshold”. The pKd [4] was 5.38, the pKd [5] was “below the threshold” and the pKd [6] was 4.39. For the same binder, the pKd [7] was 4.22, the pKd [8] was “below the threshold” and the pKd [9] was 4.67. For the same binder, the pKd [10] was 3.91, the pKd [11] was 4.91 and the pKd [12] was 4.46. For the same binder, the pKd [13] was “below the threshold”, the pKd [14] was “below the threshold” and the pKd [15] was “below the threshold”. The pKd [16] was 4.24, the pKd [17] was “below the threshold” and the pKd [18] was “below the threshold”. For the same binder, the pKd [19] was “below the threshold”, the pKd [20] was “below the threshold” and the pKd [21] was “below the threshold”. The pKd [22] was “below the threshold”, the pKd [23] was “below the threshold” and the pKd [24] was 4.51. It also gave a pKd [25] of 4.82 and a pKd [26] of 4.04.

For HLRARKSEWV [GJD4, Q96KN9], the pKd [1] was “below the threshold”, the pKd [2] was “below the threshold” and the pKd [3] was “below the threshold”. For the same binder, the pKd [4] was “below the threshold”, the pKd [5] was 5 and the pKd [6] was 4.06. The pKd [7] was 3.89, the pKd [8] was “below the threshold” and the pKd [9] was “below the threshold”. For the same binder, the pKd [10] was 3.85, the pKd [11] was “below the threshold” and the pKd [12] was “below the threshold”. For the same binder, the pKd [13] was “below the threshold”, the pKd [14] was “below the threshold” and the pKd [15] was “below the threshold”. The pKd [16] was “below the threshold”, the pKd [17] was “below the threshold” and the pKd [18] was “below the threshold”. For the same binder, the pKd [19] was “below the threshold”, the pKd [20] was “below the threshold” and the pKd [21] was 3.91. The pKd [22] was “below the threshold”, the pKd [23] was “below the threshold” and the pKd [24] was “below the threshold”. The pKd [25] was 4.01 and the pKd [26] was “below the threshold”.

With DDPSTAETVL [ABCA7, Q8IZY2] the pKd [1] was “below the threshold”, the pKd [2] was “below the threshold” and the pKd [3] was “below the threshold”. For the same binder, the pKd [4] was 4.63, the pKd [5] was “below the threshold” and the pKd [6] was 3.86. For the same binder, the pKd [7] was “below the threshold”, the pKd [8] was “below the threshold” and the pKd [9] was 4.74. It also gave a pKd [10] of 3.83, a pKd [11] of 4.98 and a pKd [12] of 4.42. For the same binder, the pKd [13] was “below the threshold”, the pKd [14] was “below the threshold” and the pKd [15] was 4.1. For the same binder, the pKd [16] was “below the threshold”, the pKd [17] was “below the threshold” and the pKd [18] was “below the threshold”. For the same binder, the pKd [19] was “below the threshold”, the pKd [20] was “below the threshold” and the pKd [21] was “below the threshold”. The pKd [22] was 4.19, the pKd [23] was “below the threshold” and the pKd [24] was 4.73. The pKd [25] was “below the threshold” and the pKd [26] was 4.65.
